Measurements from PMC9849103 (Nature Communications, 2023).

B1: C3055 (antibody, V domains shown)
VH: QVQLVQSGAEVKKPGSSVNVSCRASGGTFSSKTISWVRQAPGQGLEWMGKIFPILGVANYAQKFQGRVTITADRSTNTAYMELNSLRSEDTAIYYCATEEGYSSSRSLPAEYFRQWGQGTLVTVSS
VL: QSVLTQPPSVSGAPGQRVTISCTGSNSNIGAGYDVHWYQQLPGTAPKLLIYANTNRPSGVPDRFSGSKSGTSASLAITGLQAEDEADYYCQSYDSGLSGSLFGGGTKLTVL
notes: source: 293-6E cells, transfected, purified (Protein G Sepharose)
B2: C3108 (antibody, V domains shown)
VH: QVQLQESGPGLVKPSQTLSLTCTVSGGSISSGGYYWNWIRQSPVKGLEWIGYIYYSGGTYYNPSLRSRLTISLDTSNNQFSLRLNSVTAADTAIYYCARDQGAITFGTDAFEIWGQGTMVTVSS
VL: DIQMTQSPSSLSASVGDRVTITCQASQDISKYLNWYQQKPGKAPKLLIYGASTLKAGVPSRFSGSGSGTDFTFTISSLQPEDIATYYCQQYDSLPPTFGGGTKVEIK
notes: as for B1
B3: C3095 (antibody, V domains shown)
VH: EVQLVETGGGLIQPGGSLRLSCAASEFIVSANYMHWVRQAPGQGLEWVSVIYAGGSTFYADSVKGRFTISRDNSKNSLYLQMNSLRAEDTAVYYCARGLGDYFDFWGQGTLVTVSS
VL: DIQMTQSPSTLSASVGDRVTITCRASQSFSDWLAWYQQKPGSAPKLLIYRASSLESGVPSRFSGSGSGTEFTLTISSLQPDDFATYYCQQYNTYPLTFGGGTKVEIK
notes: as for B1

What follows are binders tested against WT RBD (SARS-CoV-2 Wuhan-Hu-1 spike receptor binding domain) (SARS-CoV-2 (Wuhan-Hu-1), UniProt P0DTC2) (assay: BLI). Conditions: both partners purified.

Row | Binder | Kd [pM]
1 | B1 | 592
2 | B2 | 960
3 | B3 | 1.58
